These results are taken from patent publication US20260055182A1 (CIS BIOPHARMA, published 2026).

For experiment [1], the target named is T1, L1-CAM recombinant protein (His Tag), human (human, UniProt P32004 20-1120).
T1 construct: Bought protein; also called CD171; human L1-CAM; not shown: His tag
The experiment can be described thus: SPR (Biacore 8K) as in Example 6, new batch of L1-CAM on the chip.

The target in experiment [2] is T1, L1-CAM recombinant protein (His Tag), …. The experiment can be described thus: SPR (Biacore 8K); L1-CAM immobilised on CM5 chip, antibody as analyte. (SPR reads the build-up and loss of mass on a sensor chip optically.)
Protocol: (§1) In the SPR experiment, antigen is immobilized on sensor chip and solutions containing antibody at various concentrations are flown over the antigen. real time measurement of kinetics parameters is performed, including their on/off rates (ka and kd). Based thereon, binding affinity constant KD is determined.
For experiment [3] the target is unchanged. The experiment in a line: GCI (Creoptix WAVEdelta); antibody captured on protein A/G, L1-CAM as analyte, 1:1 model.
The target is the same in experiment [4]. The experiment in a line: ELISA, human L1-CAM coated at 2 µg/ml.
Experiment [5] has the same target. The experiment in a line: SPR (Biacore 8K); L1-CAM immobilised on CM5 chip, antibody as analyte. This is another data set of the same source.
Protocol: as §1
Experiment [6] has the same target. The experiment can be described thus: ELISA, human L1-CAM coated at 2 µg/ml; first of two values in the cell; first of two values in the cell. In general terms: In an ELISA, binding on a coated surface is turned into a signal by an enzyme label.
The target is the same in experiment [7]. The experiment can be described thus: ELISA, human L1-CAM coated at 2 µg/ml; second of two values in the cell; second of two values in the cell.
Experiment [8] shares this target. The experiment can be described thus: ELISA, human L1-CAM coated at 2 µg/ml; second of two values in the cell.
For experiment [9] the target is unchanged. The experiment can be described thus: ELISA, human L1-CAM coated at 2 µg/ml; first of two values in the cell.

Where a chain is given by its changes, count along the chain named. Numbers in names are those of the source. Some results are limits rather than exact numbers.

T1 sequence (P32004 20-1120 limits assumed): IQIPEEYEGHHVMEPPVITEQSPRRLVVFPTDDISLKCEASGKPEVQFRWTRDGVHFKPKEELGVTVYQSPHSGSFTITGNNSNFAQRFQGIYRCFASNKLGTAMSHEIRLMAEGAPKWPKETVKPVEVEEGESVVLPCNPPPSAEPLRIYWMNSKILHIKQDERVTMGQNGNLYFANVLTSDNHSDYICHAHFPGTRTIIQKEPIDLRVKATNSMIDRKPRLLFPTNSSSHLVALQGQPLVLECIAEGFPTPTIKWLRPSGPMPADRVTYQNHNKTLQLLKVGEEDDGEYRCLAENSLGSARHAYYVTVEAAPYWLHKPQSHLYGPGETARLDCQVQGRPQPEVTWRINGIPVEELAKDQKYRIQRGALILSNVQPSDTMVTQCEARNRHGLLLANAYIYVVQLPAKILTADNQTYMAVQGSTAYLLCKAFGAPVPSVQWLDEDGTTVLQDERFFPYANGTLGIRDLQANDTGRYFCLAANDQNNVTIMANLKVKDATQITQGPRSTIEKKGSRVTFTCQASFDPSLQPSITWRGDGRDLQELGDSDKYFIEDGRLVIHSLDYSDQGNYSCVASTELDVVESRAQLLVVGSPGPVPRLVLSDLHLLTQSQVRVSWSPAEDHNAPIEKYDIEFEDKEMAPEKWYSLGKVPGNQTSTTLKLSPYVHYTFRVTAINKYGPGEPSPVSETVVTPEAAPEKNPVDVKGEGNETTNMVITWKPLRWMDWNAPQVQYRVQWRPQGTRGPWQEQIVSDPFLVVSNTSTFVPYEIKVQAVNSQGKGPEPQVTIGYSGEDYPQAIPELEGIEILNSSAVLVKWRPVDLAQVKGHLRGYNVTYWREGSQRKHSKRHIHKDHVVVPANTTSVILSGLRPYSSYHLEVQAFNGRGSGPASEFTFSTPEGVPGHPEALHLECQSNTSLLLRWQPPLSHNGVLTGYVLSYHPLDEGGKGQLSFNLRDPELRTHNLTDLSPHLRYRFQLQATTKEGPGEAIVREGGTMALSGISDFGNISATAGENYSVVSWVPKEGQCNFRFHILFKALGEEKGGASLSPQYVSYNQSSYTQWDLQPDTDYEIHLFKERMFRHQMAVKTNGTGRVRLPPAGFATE

B1: CE7-variant7-AG (antibody, human IgG1, kappa, L234A L235A, N297A)
heavy: QVQLVQSGAEVKKPGASVKVSCKASGYTFTGYWMHWVRQAPGQGLEWIGEINPSNGRTNYNERFQGRVTLTVDKSISTAYMELSRLRSDDTAVYYCARDYYGTSYNFDYWGQGTLVTVSSASTKGPSVFPLAPSSKSTSGGTAALGCLVKDYFPEPVTVSWNSGALTSGVHTFPAVLQSSGLYSLSSVVTVPSSSLGTQTYICNVNHKPSNTKVDKKVEPKSCDKTHTCPPCPAPEAAGGPSVFLFPPKPKDTLMISRTPEVTCVVVDVSHEDPEVKFNWYVDGVEVHNAKTKPREEQYASTYRVVSVLTVLHQDWLNGKEYKCKVSNKALPASIEKTISKAKGQPREPQVYTLPPSREEMTKNQVSLTCLVKGFYPSDIAVEWESNGQPENNYKTTPPVLDSDGSFFLYSKLTVDKSRWQQGNVFSCSVMHEALHNHYTQKSLSLSPGK
light: DIQMTQSPSSLSASVGDRVTITCKANEDINNRLAWYQQKPGKAPKLLISGATNLVTGVPSRFSGSGSGKDYTLTISSLQPEDFATYYCQQYWSTPFTFGQGTKLEIKRTVAAPSVFIFPPSDEQLKSGTASVVCLLNNFYPREAKVQWKVDNALQSGNSQESVTEQDSKDSTYSLSSTLTLSKADYEKHKVYACEVTHQGLSSPVTKSFNRGEC
notes: CE7-1-2-VHB (L234A L235A P331S N297A) + CE7-1-NL1-VLA, aglycosylated human IgG1 kappa; also called CE7-varant7-AG; huCE7 variant 7AG
As to B1, in experiment [1], the Kd (commonly the equilibrium constant for the complex coming apart) worked out at 23.8 pM; the koff – broadly, the rate constant with which the complex falls apart – amounted to 3.53e-05 s⁻¹; the kon (as a rule, the rate constant with which the complex forms) is 1.48e+06 M⁻¹ s⁻¹. In experiment [2], the Kd was less than 9.71 pM, the koff was less than 1e-05 s⁻¹ and the kon came to 1.03e+06 M⁻¹ s⁻¹. The Kd in experiment [3] is roughly 4000 pM. The EC50 – broadly, the concentration giving half of the maximal effect – in [4] was found to be 0.0258 µg/mL.

B2: CE7-variant26 (antibody, V domains shown)
VH: QVQLVQSGAEVKKPGASVKVSCKASGYTFTGYWMHWVRQAPGQGLEWMGEINPSNGRTNYNEKFQGRVTLTVDKSISTAYMELSRLRSDDTAVYYCARDYYGTSYNFDYWGQGTLVTVSS
VL: DIQMTQSPSSLSASVGDRVTITCRANEDINNRLAWYQQKPGKAPKLLISGATNLVTGVPSRFSGSGSGKDYTLTISSLQPEDFATYYCQQYWSTPFTFGQGTKLEIKR
notes: CE7-1-2-VHD + CE7-1-NL1-VLB; human IgG1 kappa, L234A L235A P331S N297A (aglycosylated); also called humanized variant 26
For B2, in [5], the Kd was found to be 0.186 pM, the koff was 1.65e-07 s⁻¹ and the kon came out at 891000 M⁻¹ s⁻¹. Moreover, the EC50 in experiment [4] turned out to be 0.0127 µg/mL.

B3: huCE7 variant LV42 (antibody, human IgG1, kappa, L234A L235A, N297A)
heavy: B1 heavy with T310P
light: B1 light
notes: Variant 7AG with HC TH307P; also called huCE7-variant42
Take B3: the kon in experiment [1] is 1.92e+06 M⁻¹ s⁻¹.

B4: CE7-variant4-AG (antibody)
heavy: B1 heavy with Q65K, G66S, Y95F
light: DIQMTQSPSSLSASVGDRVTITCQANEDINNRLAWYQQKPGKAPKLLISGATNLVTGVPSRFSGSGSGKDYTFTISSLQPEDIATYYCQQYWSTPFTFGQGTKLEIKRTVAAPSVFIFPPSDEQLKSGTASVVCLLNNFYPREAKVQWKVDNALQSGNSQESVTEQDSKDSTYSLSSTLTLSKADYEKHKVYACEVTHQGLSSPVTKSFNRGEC
notes: CE7-1-2-VHA (L234A L235A P331S N297A) + CE7-1-33-VLB, aglycosylated human IgG1 kappa; also called CE7-varant4-AG
For the molecule B4, in experiment [2], the Kd was found to be 0.664 pM, the dissociation rate constant (koff) worked out at 8.18e-07 s⁻¹ and the kon was 1.23e+06 M⁻¹ s⁻¹.

B5: CE7-variant7 (antibody)
heavy: B1 heavy with A300N
light: B1 light
notes: also called CE7-12-VHB-1NL1-VLA; humanized variant 7
As for B5, in experiment [5], the dissociation constant Kd stood at 0.896 pM, the koff was 5.51e-07 s⁻¹ and the kon was 615000 M⁻¹ s⁻¹. Besides, the EC50 in experiment [6] was found to be 0.00958 µg/mL. In experiment [7], the half-maximal effective concentration (EC50) is 0.0327 µg/mL.

B6: huCE7 variant LV38 (antibody, human IgG1, kappa, L234A L235A, N297A)
heavy: B1 heavy with W33F, G56A, L312D
light: B1 light with N31A, W92Y
notes: Variant 7AG with HC WH33F, GH55A, LH309D and LC NL31A, WL92Y; also called huCE7-variant38
B6: in [1], the dissociation constant (Kd) stood at 268 pM, the koff came out at 3.23e-05 s⁻¹ and the kon is 121000 M⁻¹ s⁻¹.

B7: CE7-variant28 (antibody, V domains shown)
VH: B2 VH
VL: B2 VL with N26S, E27Q, D28G, T52S, T56S
notes: CE7-1-2-VHD + CE7-1-NL1-VLD; human IgG1 kappa, L234A L235A P331S N297A (aglycosylated); also called humanized variant 28
On to B7, for which, in experiment [5], the Kd is 46 pM, the koff was 3.62e-05 s⁻¹ and the on-rate (kon) was determined as 787000 M⁻¹ s⁻¹. Besides, the EC50 in experiment [4] is 0.0701 µg/mL.

B8: chimeric cHCE7 (antibody, V domains shown)
VH: QVQLQQPGAELVKPGASVKLSCKASGYTFTGYWMHWVKQRPGHGLEWIGEINPSNGRTNYNERFKSKATLTVDKSSTTAFMQLSGLTSEDSAVYFCARDYYGTSYNFDYWGQGTTLTVSS
VL: DIQMTQSSSSFSVSLGDRVTITCKANEDINNRLAWYQQTPGNSPRLLISGATNLVTGVPSRFSGSGSGKDYTLTITSLQAEDFATYYCQQYWSTPFTFGSGTELEIK
notes: Control antibody; also called chimeric HCE7; CE7 chimeric antibody
Turning to B8, in experiment [2], the Kd is 51.9 pM, the koff was determined as 4.39e-05 s⁻¹ and the kon amounted to 845000 M⁻¹ s⁻¹. In addition, the EC50 in experiment [8] stood at 0.0232 µg/mL. Further, the EC50 in experiment [9] turned out to be 0.00663 µg/mL.

B9: Deglycosylated cHCE7 (antibody, V domains shown)
VH: B8 VH
VL: B8 VL
modifications: deglycosylated (so in the source); site and method not stated for this sample
notes: also called cHCE7 degly; cHCE7 deglycosylated
Consider B9, for which, in experiment [2], the Kd amounted to 120 pM, the koff came out at 9.59e-05 s⁻¹ and the kon is 806000 M⁻¹ s⁻¹. The Kd in experiment [3] was roughly 4000 pM. The 50% effective concentration (EC50) in [4] stood at 0.0131 µg/mL.

B10: LV7 (antibody, V domains shown)
VH: B8 VH
VL: DIQMTQSSSSFSVSLGDRVTITCKANEDINNRLAWYQQTPGNSPRLLISGATNLVTGVPSRFSGSGSGKDYTLTITSLQAEDFATYYCQQYYSTPFTFGSGTELEIKR
notes: CE7-VH-chimeric + CE7-VL-chimeric-WL92Y; chimeric CE7, human IgG1 kappa, L234A L235A P331S N297A; also called liability variant 7
Consider B10, for which, in experiment [4], the concentration giving a half-maximal response (EC50) was determined as 0.0246 µg/mL.

B11: LV8 (antibody, V domains shown)
VH: B8 VH
VL: B10 VL with Y92F
notes: CE7-VH-chimeric + CE7-VL-chimeric-WL92F; chimeric CE7, human IgG1 kappa, L234A L235A P331S N297A; also called liability variant 8
B11: the EC50 in experiment [4] stood at 0.0335 µg/mL.

B12: LV6 (antibody, V domains shown)
VH: B8 VH
VL: B10 VL with N31A, Y92W
notes: CE7-VH-chimeric + CE7-VL-chimeric-NL31A; chimeric CE7, human IgG1 kappa, L234A L235A P331S N297A; also called liability variant 6
With B12, in experiment [4], the EC50 amounted to 0.0268 µg/mL.

B13: CE7-variant18-AG (antibody)
heavy: QVQLQQWGAGLLKPSETLSLTCAAYGYTFTGYWMHWIRQPPGKGLEWIGEINPSNGRTNYNERLKSRVTLSVDKSKNQASLKLSSVTAADTAVYFCARDYYGTSYNFDYWGQGTLVTVSSASTKGPSVFPLAPSSKSTSGGTAALGCLVKDYFPEPVTVSWNSGALTSGVHTFPAVLQSSGLYSLSSVVTVPSSSLGTQTYICNVNHKPSNTKVDKKVEPKSCDKTHTCPPCPAPEAAGGPSVFLFPPKPKDTLMISRTPEVTCVVVDVSHEDPEVKFNWYVDGVEVHNAKTKPREEQYASTYRVVSVLTVLHQDWLNGKEYKCKVSNKALPASIEKTISKAKGQPREPQVYTLPPSREEMTKNQVSLTCLVKGFYPSDIAVEWESNGQPENNYKTTPPVLDSDGSFFLYSKLTVDKSRWQQGNVFSCSVMHEALHNHYTQKSLSLSPGK
light: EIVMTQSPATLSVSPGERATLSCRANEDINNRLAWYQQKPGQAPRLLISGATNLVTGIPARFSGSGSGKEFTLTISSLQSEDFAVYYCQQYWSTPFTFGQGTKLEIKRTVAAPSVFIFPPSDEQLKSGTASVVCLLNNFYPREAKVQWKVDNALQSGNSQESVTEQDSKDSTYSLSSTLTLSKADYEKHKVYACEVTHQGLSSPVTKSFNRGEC
notes: CE7-4-34-VHA (L234A L235A P331S N297A) + CE7-3-15-VLB, aglycosylated human IgG1 kappa; N297 of IgG1 numbering is residue 319 of the entry (QYNST); also called CE7-varant18-AG
As for B13, in experiment [2], the Kd turned out to be 1.24 pM, the dissociation rate constant (koff) is 1.35e-06 s⁻¹ and the kon came to 1.09e+06 M⁻¹ s⁻¹.
